Target: T1, PP1c (Homo sapiens, UniProt P62136)
T1 construct: His tag with TEV site (N, cleaved yes); intein (pTXB1) (C, cleaved yes); made in house; host or cells: E. coli BL21Star(DE3)pRARE
Assay: Phosphopeptide library dephosphorylation followed by mass spectrometry (PLDMS), PP1c
Type: biochemical
Conditions: all libraries, 25 nM PP1c, 100 µM library, 2 min, 25 °C, pH 7.5; library distribution 60% Ser to 40% Thr
Description: In order to determine phosphatase specificity on the phosphopeptide level, we developed an in vitro phosphopeptide library dephosphorylation followed by mass spectrometry approach (PLDMS, Fig. 1a; see the methods for details). In this approach, phosphopeptide libraries would be treated with PP1, PP2A, or left untreated, purified, and analyzed by LC-MS/MS measurements. In the first step, design, synthesis, and validation of phosphopeptide libraries were required. The phosphopeptide libraries were designed to yield an even distribution of amino acids in the different randomized positions and to give high coupling efficiency during synthesis, thus reducing the number of by-products. […]
The individual libraries were incubated with recombinant PP1c or PP2Ac (Supplementary Fig. 1a) and the reaction was stopped by shifting the pH from 7.5 to 3 when 30–50% of the library was dephosphorylated, depending on phosphatase activity (see the methods for details, Supplementary Fig. 1b). Peptides were then separated from the recombinant protein by size-exclusion chromatography (SEC) (Supplementary Fig. 1c) and analyzed by LC-MS/MS (Fig. 1a). […]
For LC-MS analysis, the treated/ctrl peptide libraries were purified by SEC. […] A 0.1 M ammonium acetate buffer (pH 5) was used throughout the column equilibration and purification and the elution profile was recorded at 280 nm. […]

T1 sequence (P62136 whole entry): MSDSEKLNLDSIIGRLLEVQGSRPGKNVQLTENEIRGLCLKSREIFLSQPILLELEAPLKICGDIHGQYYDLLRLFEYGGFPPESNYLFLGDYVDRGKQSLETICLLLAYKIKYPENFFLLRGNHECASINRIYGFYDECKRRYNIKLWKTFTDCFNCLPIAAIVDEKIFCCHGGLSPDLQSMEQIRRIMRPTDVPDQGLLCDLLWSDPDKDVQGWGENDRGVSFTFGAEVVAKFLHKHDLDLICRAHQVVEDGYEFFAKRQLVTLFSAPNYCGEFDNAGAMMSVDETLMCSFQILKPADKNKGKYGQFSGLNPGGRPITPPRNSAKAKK

pThr share of all sites dephosphorylated by PP1c: 73%
Substance: PP1c: recombinant catalytic subunit of PP1
